Experimental data from patent publication US11628159B2, “Cell-protective compounds and their use” (ETH ZURICH, priority 2017, dated 2023).

Molecular target: T1, GRK2 (Homo sapiens, UniProt P25098)
T1 construct: fused on or other part: hexahistidine tag
T1 sequence (P25098 1-669 limits assumed): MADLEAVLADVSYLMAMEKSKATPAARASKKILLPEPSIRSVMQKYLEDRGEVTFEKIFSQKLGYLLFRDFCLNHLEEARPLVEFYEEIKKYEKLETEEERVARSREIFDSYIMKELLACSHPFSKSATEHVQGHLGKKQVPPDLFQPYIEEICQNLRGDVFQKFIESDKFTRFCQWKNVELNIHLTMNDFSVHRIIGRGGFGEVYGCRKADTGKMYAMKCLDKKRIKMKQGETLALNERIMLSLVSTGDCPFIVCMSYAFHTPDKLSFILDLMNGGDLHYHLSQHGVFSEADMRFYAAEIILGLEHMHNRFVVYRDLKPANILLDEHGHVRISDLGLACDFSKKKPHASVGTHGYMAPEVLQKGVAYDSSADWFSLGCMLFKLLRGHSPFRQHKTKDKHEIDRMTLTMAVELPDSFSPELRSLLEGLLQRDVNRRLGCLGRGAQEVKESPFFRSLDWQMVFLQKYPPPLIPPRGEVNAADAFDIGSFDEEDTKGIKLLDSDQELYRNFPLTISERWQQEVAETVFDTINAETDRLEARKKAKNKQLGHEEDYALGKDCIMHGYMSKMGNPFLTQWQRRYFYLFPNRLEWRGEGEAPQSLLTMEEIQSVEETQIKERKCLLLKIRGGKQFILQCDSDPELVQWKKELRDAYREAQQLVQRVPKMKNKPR
Experiment: In vitro phosphorylation assay: GRK2-mediated phosphorylation of phosducin
Assay type: biochemical
Conditions: n=6-7; read-out: IC50, inhibition of GRK2-induced phosducin phosphorylation
Source text: Recombinant human GRK2 protein and GRK2-S670A protein was expressed in and purified from Spodoptera frugiperda (Sf9) cells by the baculoviral expression system. The cDNAs encoding hexahistidine-tagged human GRK2 (ADRBK1) GRK2-S670A were subcloned into the pFastBac1 expression plasmid (INVITROGEN™, THERMO FISHER SCIENTIFIC®, Waltham, Mass., USA) using the Sal I/Hind III restriction sites, recombinant baculovirus was generated by the Bac-To-Bac Baculovirus expression system (THERMO FISHER SCIENTIFIC®, Waltham, Mass., USA). Sf9 cells were infected with recombinant baculoviruses at an MOI of 2-3, 48 h after infection cells were harvested by centrifugation, lysed with lysis buffer (300 mM NaCl, 50 mM HEPES, pH 7.5 supplemented with 1% NP40, 1 mM PMSF and protease inhibitor cocktail) and applied to Ni-NTA chromatography. After overnight incubation at 4° C., unbound proteins were removed by washing with lysis buffer (20× column volumes) followed by 1× column volume of 30 mM imidazole-containing lysis buffer. Bound GRK2 was eluted by 300 mM imidazole in lysis buffer, desalted by PD10 column chromatograpy, supplemented with 20% glycerol and stored at −80° C. for further use. […]

B1: RKIP: raf kinase inhibitor protein, a dual-specific GRK2 and Raf kinase inhibitor (protein, UniProt P30086 2-187, looked up)
Phosphatidylethanolamine-bindi …: PVDLSKWSGPLSLQEVDEQPQHPLHVTYAGAAVDELGKVLTPTQVKNRPTSISWDGLDSGKLYTLVLTDPDAPSRKDPKYREWHHFLVVNMKGNDISSGTVLSDYVGSGPPKGTGLHRYVWLVYEQDRPLKCDEPILSNRSGDHRGKFKVASFRKKYELRAPVAGTCYQAEWDDYVPKLYEQLSGK
B1 was tested, and the IC50 was 950 nM.
